Measured values reported in the RNAGym collection of RNA variant scans (doi:10.7554/elife.90254).

B1: LINE1-full (parent)
chain: UACGUAGGUGGUUUUCCCCUGAUAGUGCUAAGGGGGCCUGGAAGUUUGGACUGGGCAGAGCUCAACACAGCGUGGCAAAGUGGCUGUGGCUAGACUGCCUCUCUGGAUUCCUCGUCACUCAGCAGGGCAUCUCUGAGAGAAAUGCC

Variants of: B1
Test: self-cleavage, relative activity (ratio to wild type); higher = more cleavage; in vitro, sequencing; the parent is a self-cleaving ribozyme
A30G A107G gave a self-cleavage of 1.2. Work on G32A A50G yielded a self-cleavage of 0.93. In the case of A31G A117G, the self-cleavage is reported as 1.84. For A31G A117U, the self-cleavage was 1. Variant U29G U85C has a self-cleavage of 0.46. For A30G G55U, the self-cleavage was 0.79. G32A A64U showed a self-cleavage of 0.36. With G32A A64G the self-cleavage was 0.24. Work on U29C G70U yielded a self-cleavage of 0.01. U29G A141U showed a self-cleavage of 0.35. With A31G U112C the self-cleavage was 1.3. Work on A30G C146U yielded a self-cleavage of 0.92. In the case of A30G A69U, the self-cleavage is reported as 0.19. In the case of U29C U130G, the self-cleavage is reported as 1.84. With A31U A64G the self-cleavage was 0.2. In the case of A30U G144A, the self-cleavage is reported as 0.75. Variant A31U A124G has a self-cleavage of 1.09. For A31U A124U, the self-cleavage was 1.42. Variant A31U U130C has a self-cleavage of 1.23. In the case of A30G A140G, the self-cleavage is reported as 0.99. Work on A30G U62A yielded a self-cleavage of 0.04. A30G U62C gave a self-cleavage of 0.13. With A30G A92G the self-cleavage was 0. Work on A30G U91C yielded a self-cleavage of 0.65. A31G U134C gave a self-cleavage of 1.53. For A31G U134A, the self-cleavage was 0.45. Variant A30G A50U has a self-cleavage of 0.89. With A30G A50G the self-cleavage was 0.64. In the case of G32A A78U, the self-cleavage is reported as 1.32. For A30G A77U, the self-cleavage was 0.71. Variant A30G C123A has a self-cleavage of 1. A30U G58A gave a self-cleavage of 0.18. A30G A141G gave a self-cleavage of 1.26. In the case of A30C A69G, the self-cleavage is reported as 0. Variant A31U U115C has a self-cleavage of 1.32. A31U U115G gave a self-cleavage of 0.37. In the case of A31G U87C, the self-cleavage is reported as 0.22. G32A A57G gave a self-cleavage of 1.37. Variant A31G A67G has a self-cleavage of 0.5. A30U G125U showed a self-cleavage of 1.17. Work on A31G A69U yielded a self-cleavage of 0.12. In the case of A31U A57G, the self-cleavage is reported as 1. Variant A30G A57G has a self-cleavage of 1.39. With A31G U119A the self-cleavage was 1.39. Work on A31G U119C yielded a self-cleavage of 1.94. With A31G A43G the self-cleavage was 0.98. A31U G88U showed a self-cleavage of 0.15. Variant A31G A92U has a self-cleavage of 0.91. A30G U102C gave a self-cleavage of 1.15. A31G A77U gave a self-cleavage of 0.86. With U29G U108C the self-cleavage was 0.54. Variant A30G U108C has a self-cleavage of 0.5. With U29G G70A the self-cleavage was 0.27. In the case of A31U A77G, the self-cleavage is reported as 1.39. With A31U U104A the self-cleavage was 1.15. In the case of A31G A142G, the self-cleavage is reported as 1.17. Work on G32A A121G yielded a self-cleavage of 1.53. G32A A121U showed a self-cleavage of 1.45. Variant A30U A57U has a self-cleavage of 0.13. A30U U104A gave a self-cleavage of 1.93. Variant A30U U104C has a self-cleavage of 1.31. Variant U29C G60A has a self-cleavage of 0.02. Variant A30U A92G has a self-cleavage of 0.11. A31U A94G gave a self-cleavage of 0.36. Work on A30G U130A yielded a self-cleavage of 1.15. With U29C U81A the self-cleavage was 1.3. U29C U81C showed a self-cleavage of 1.27. In the case of A30G C99A, the self-cleavage is reported as 0.61. With A30U A77G the self-cleavage was 1.25. With G32A G55U the self-cleavage was 0.32. A31G U100C gave a self-cleavage of 1.29. Variant A30G A65G has a self-cleavage of 0.07. A30U U143A gave a self-cleavage of 0.77. A30C U87C gave a self-cleavage of 0.64. For U29C G89A, the self-cleavage was 0.06. For A30G A138G, the self-cleavage was 0.64. Work on U29G C113U yielded a self-cleavage of 0.66. For A31U G58A, the self-cleavage was 0.05. Work on A30G U115A yielded a self-cleavage of 1.17. G32A A77G gave a self-cleavage of 1.56. A30U U62C showed a self-cleavage of 0.07. A30G G83C gave a self-cleavage of 0.66. A31G U46C showed a self-cleavage of 1.67. For A30G A43U, the self-cleavage was 1.5. With A30G U73A the self-cleavage was 1.19. In the case of A30G U73G, the self-cleavage is reported as 0.81. A30U A94G gave a self-cleavage of 0.55. Variant A31U U39G has a self-cleavage of 0.93. A31U U39C gave a self-cleavage of 0.73. Work on U29C G127C yielded a self-cleavage of 1.58. For U29C G127A, the self-cleavage was 0.64. U29C G83A gave a self-cleavage of 0.43. U29C U100C gave a self-cleavage of 1.49. For U29C U104A, the self-cleavage was 1.12. With U29C U104C the self-cleavage was 1. In the case of A31C U104A, the self-cleavage is reported as 2.67. In the case of U29G A57G, the self-cleavage is reported as 0.51. Variant A31C U45G has a self-cleavage of 0. With G32A C51U the self-cleavage was 0.88. Work on U29G G137U yielded a self-cleavage of 1.04. A31G U73A gave a self-cleavage of 0.79. A31G U73C gave a self-cleavage of 0.77. In the case of U29C U73C, the self-cleavage is reported as 1.3. With A31U U45G the self-cleavage was 1.5. A30U G32A showed a self-cleavage of 0.89. Work on G32A A79G yielded a self-cleavage of 1.26. Variant A30G C103A has a self-cleavage of 0.85. With A30U A141G the self-cleavage was 0.87. With G32A G83U the self-cleavage was 0.83. With A30U A31U the self-cleavage was 1.3. Variant A30U A31G has a self-cleavage of 1.23. A30C U46C gave a self-cleavage of 1.48. U29C U62C showed a self-cleavage of 0.15. With A30U A50G the self-cleavage was 2.04. With A31G A65G the self-cleavage was 0. Variant A31G A59U has a self-cleavage of 0.42. A31G A59G gave a self-cleavage of 0.16. A31G A59C gave a self-cleavage of 1.53. With A31U A129U the self-cleavage was 0.33. With A30U A117G the self-cleavage was 2.32. With A31G U85A the self-cleavage was 0.11. A31G U85C showed a self-cleavage of 0.33. A31G U81C gave a self-cleavage of 0.69. With A31G U81A the self-cleavage was 0.66. A31U U119C showed a self-cleavage of 1.62. With U29G G35C the self-cleavage was 1.03. U29C U85C showed a self-cleavage of 0.28. For U29C U85A, the self-cleavage was 0.12. With A30C A140G the self-cleavage was 1. A30G U109C showed a self-cleavage of 1.71. Work on A30G U109A yielded a self-cleavage of 1.38. Variant A31C A142G has a self-cleavage of 0.53. Variant U29C U115C has a self-cleavage of 1.75. Work on A31U A59U yielded a self-cleavage of 0.39. Work on A31U A59G yielded a self-cleavage of 0.14. Work on U29G U104A yielded a self-cleavage of 1.6. In the case of A30U U47A, the self-cleavage is reported as 1.15. For A31G A124U, the self-cleavage was 1.3. In the case of A30G G70U, the self-cleavage is reported as 0.11. With A31G G82A the self-cleavage was 2.09. In the case of U29C G36A, the self-cleavage is reported as 1.63. A31G U104A showed a self-cleavage of 0.48. With A30G U132G the self-cleavage was 1.93. U29C U102C showed a self-cleavage of 1.1. Work on U29C U102A yielded a self-cleavage of 1.84. For U29C G44C, the self-cleavage was 1.82. In the case of A30U U45G, the self-cleavage is reported as 0.74. A31G U132C showed a self-cleavage of 0.85. Work on G32A A138U yielded a self-cleavage of 0.89. Work on A31C U85C yielded a self-cleavage of 0.54. A31C U134C gave a self-cleavage of 1. U29C G48A gave a self-cleavage of 0.88. A30G C120U gave a self-cleavage of 1.53. In the case of A30C A141G, the self-cleavage is reported as 1.38. Variant A30G U104A has a self-cleavage of 0.61. In the case of A30G U87A, the self-cleavage is reported as 0.16. With A30U A65C the self-cleavage was 0.1. Variant A30U A65G has a self-cleavage of 0.06. A31U U81A showed a self-cleavage of 1.57. Work on A31U U47C yielded a self-cleavage of 1.08. In the case of A31U U52C, the self-cleavage is reported as 0.87. A31U U52A gave a self-cleavage of 1.73. In the case of A31G A64U, the self-cleavage is reported as 0.48. With A30C U96C the self-cleavage was 0.39. In the case of G32A A59G, the self-cleavage is reported as 0.02. A30U G48U showed a self-cleavage of 0.71. Variant A30C A107G has a self-cleavage of 2.06.
